From patent publication US20200071412A1 (ROCKEFELLER UNIVERSITY, published 2020)

T1: human FcγRIIa-H131 (human, UniProt P12318 34-217, limits assumed)
T1 construct: also called hCD32a/FcγRIIa-H131
T1 sequence (looked up): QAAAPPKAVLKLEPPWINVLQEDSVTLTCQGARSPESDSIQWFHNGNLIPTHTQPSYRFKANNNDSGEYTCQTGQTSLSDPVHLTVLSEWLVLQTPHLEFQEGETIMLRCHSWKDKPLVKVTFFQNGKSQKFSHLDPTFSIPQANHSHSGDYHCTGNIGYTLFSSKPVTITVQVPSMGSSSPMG


How the values were obtained:
[1] = target: human FcγRIIb (human) (UniProt P31994); experiment: Fc variant affinity for Fcγ receptor; method not stated
Chain of human FcγRIIb (human) (P31994 43-217 limits assumed): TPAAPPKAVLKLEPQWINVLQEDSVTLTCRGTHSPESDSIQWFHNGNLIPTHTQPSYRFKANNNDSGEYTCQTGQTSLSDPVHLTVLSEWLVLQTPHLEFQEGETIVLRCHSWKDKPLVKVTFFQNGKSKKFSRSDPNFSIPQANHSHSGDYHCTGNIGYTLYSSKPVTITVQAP

[2] = target: human FcγRIIa-H131 (human) (UniProt P12318); experiment: as above
[3] = target: human FcγRIIa-R131 (human) (UniProt P12318); experiment: as above
[4] = target: T1, human FcγRIIa-H131; experiment: BLI (FORTEBIO Octet), %Rmax; supernatant 12D6-24-V9-DT-sup; receptor hCD32a/FcγRIIa-H131
[5] = target: T1, human FcγRIIa-H131; experiment: BLI (FORTEBIO Octet), %Rmax; supernatant 5F11-45-V9-DT-sup; receptor hCD32a/FcγRIIa-H131

Row | Kd [1] [nM] | Kd [2] [nM] | Kd [3] [nM] | Molecule | further results
1 | 950 |  |  | Fc sequence variant P238D (antibody) | 
2 | 3900 | 530 | 850 | Fc sequence variant IgG1f (antibody with human IgG1f constant domain) | 
3 | 98 | 520 | 22 | Fc sequence variant SE (antibody) | 
4 |  |  | 2 | Fc sequence variant SELF (antibody) | 
5 |  |  |  | 12D6-24-V9-DT-sup (antibody, Tested as a supernatant of antibody producing cells; also called 12D6-24 V9 D270T; copies: 2 + 2) heavy: QVQLVQSGAEVKKPGASVKVSCKASGYTFTGYNMNWVRQAPGQGLEWMGNIDPYYGNTNYNQKFKGRVTMTTDTSTSTAYMELRSLRSDDTAVYYCARLGLQLYALDYWGQGTTVTVSSASTKGPSVFPLAPSSKSTSGGTAALGCLVKDYFPEPVTVSWNSGALTSGVHTFPAVLQSSGLYSLSSVVTVPSSSLGTQTYICNVNHKPSNTKVDKRVEPKSCDKTHTCPPCPAPELLGDDSVFLFPPKPKDTLMISRTPEVTCVVVDVSHETGEVKFNWYVDGVEVHNAKTKPREEQYNSTYRVVSVLTVLHQDWLNGKEYKCKVSNKALPRPIEKTISKAKGQPREPQVYTLPPSREEMTKNQVSLTCLVKGFYPSDIAVEWESNGQPENNYKTTPPVLDSDGSFFLYSKLTVDKSRWQQGNVFSCSVMHEALHNHYTQKSLSLSPG light: DIVMTQTPLSLPVTPGEPASISCRSSQSLVHSNANTYLHWYLQKPGQSPQLLIYKLTNRFFGVPDRFSGSGSGTDFTLKISRVEAEDVGVYYCSQSIHVPWTFGGGTKVEIKRTVAAPSVFIFPPSDEQLKSGTASVVCLLNNFYPREAKVQWKVDNALQSGNSQESVTEQDSKDSTYSLSSTLTLSKADYEKHKVYACEVTHQGLSSPVTKSFNRGEC | binding result [4]: no binding (tested: 10 µM)
6 |  |  |  | 5F11-45-V9-DT-sup (antibody, human IgG1, kappa, Tested as a supernatant of antibody producing cells; also called 5F11-45 V9 D270T) heavy chain: QVQLVQSGAEVKKPGSSVKVSCKASGYTFTDLSMHWVRQAPGQGLEWMGYITPSSGYTAYNQKFKGKTTLTADKSTSTAYMELSSLRSEDTAVYYCARLILQRGAYWGQGTLVTVSSASTKGPSVFPLAPSSKSTSGGTAALGCLVKDYFPEPVTVSWNSGALTSGVHTFPAVLQSSGLYSLSSVVTVPSSSLGTQTYICNVNHKPSNTKVDKRVEPKSCDKTHTCPPCPAPELLGDDSVFLFPPKPKDTLMISRTPEVTCVVVDVSHETGEVKFNWYVDGVEVHNAKTKPREEQYNSTYRVVSVLTVLHQDWLNGKEYKCKVSNKALPRPIEKTISKAKGQPREPQVYTLPPSREEMTKNQVSLTCLVKGFYPSDIAVEWESNGQPENNYKTTPPVLDSDGSFFLYSKLTVDKSRWQQGNVFSCSVMHEALHNHYTQKSLSLSPG light chain: DIVLTQSPDSLAVSLGERATINCRASKNVDSYGNSFMHWYQQKPGQPPKLLIYRASNLESGVPDRFSGSGSGTDFTLTISSLQAEDVAVYYCQQSNEDPLTFGQGTKLEIKRTVAAPSVFIFPPSDEQLKSGTASVVCLLNNFYPREAKVQWKVDNALQSGNSQESVTEQDSKDSTYSLSSTLTLSKADYEKHKVYACEVTHQGLSSPVTKSFNRGEC | binding result [5]: no binding (tested: 10 µM)
